The source of these data is the supplement of paper PMC10567573.

B1: ADD1 (parent)
chain: LRHSFQKQQREKTRWLNSGRGDEA
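Note: lentivirally expressed fusions sorted by FACS into six bins by GFP to DsRed ratio, PSI derived from sequencing read proportions per bin multiplied by bin number.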

Variants of B1 are the subject of the series. Briefly: protein stability index of a GFP-peptide fusion (GPS, HEK-293T) (PSI 1-6); higher = more stable. The following applies: c terminus: a fixed tail appended.
In the case of VRHSFQKQQREKTRWLNSGRGDEA, the protein stability index worked out at 3.71.

In the case of KRHSFQKQQREKTRWLNSGRGDEA, the protein stability index stood at 3.62.

Turning to PRHSFQKQQREKTRWLNSGRGDEA, the protein stability index was determined as 4.04.

For ARHSFQKQQREKTRWLNSGRGDEA, the protein stability index worked out at 4.57.

TRHSFQKQQREKTRWLNSGRGDEA: the protein stability index was found to be 4.32.

Take LRHSFQKQQREKTRWLNSGRGLEA: the protein stability index turned out to be 2.71.

Turning to LRHSFQKQQREKTRWLNSGRGWEA, the protein stability index is 1.99.

For LRHSFQKQQREKTRWLNSGRGSEA, the protein stability index is 3.9.

In the case of LRHSFQKQQREKTRWLNSGRGIEA, the protein stability index stood at 2.68.

For the variant LRHSFQKQQREKTRWLNSGRGKEA, the protein stability index stood at 3.4.

On to LRHSFQKQQREKTRWLNSGRGPEA, for which the protein stability index was found to be 2.83.

For the variant LRHSFQKQQREKTRWLNSGRGAEA, the protein stability index turned out to be 3.57.

LRHSFQKQQREKTRWLNSGRGNEA: the protein stability index is 3.69.

With LRHSFQKQQREKTRWLNSGRGREA, the protein stability index came to 3.73.

Take LRHSFQKQQREKTRWLNSGRGFEA: the protein stability index amounted to 3.64.

Take LRHSFQKQQREKTRWLNSGSGDEA: the protein stability index amounted to 4.12.

With LRHSFQKQQREKTRWLNSGMGDEA, the protein stability index came out at 3.78.

In the case of LRHSFQKQQREKTRWLNSGCGDEA, the protein stability index was 3.91.

Consider LRHSFQKQQREKTRWLNSGPGDEA, for which the protein stability index was determined as 4.17.

Take LRHSFQKQQREKTRWLNSGIGDEA: the protein stability index stood at 3.54.

On to LRHSFQKQQREKTRWLNSGGGDEA, for which the protein stability index was 3.71.

Consider LRHSFQKQQREKTRWLNSGFGDEA, for which the protein stability index was 3.21.

In the case of LRHSFQKQQREKTRWLNSGLGDEA, the protein stability index stood at 2.24.

LRHSFQKQQREETRWLNSGRGDEA: the protein stability index was 4.24.

As for LRHSFQKQQREQTRWLNSGRGDEA, the protein stability index stood at 3.85.

In the case of LRHSFQKQQREFTRWLNSGRGDEA, the protein stability index is 3.05.

On to LRHSFQKQQREGTRWLNSGRGDEA, for which the protein stability index worked out at 4.09.

LRHSFQKQQRELTRWLNSGRGDEA: the protein stability index was 3.51.

In the case of LRHSFQKQQREPTRWLNSGRGDEA, the protein stability index amounted to 3.56.

Turning to LRHSFQKQQRESTRWLNSGRGDEA, the protein stability index amounted to 3.54.

For LRHSFQKQQREKTRMLNSGRGDEA, the protein stability index came to 4.25.

With LRHSFQKQQREKTRFLNSGRGDEA, the protein stability index stood at 4.05.

For the variant LRHSFQKQQREKTRPLNSGRGDEA, the protein stability index was 4.66.

As to LRHSFQKQQREKTRILNSGRGDEA, the protein stability index came out at 4.27.

With LRHSFQKQQREKTRLLNSGRGDEA, the protein stability index amounted to 4.38.

As to LRHSFQKQQREKTRELNSGRGDEA, the protein stability index was found to be 4.81.

With LRHSFQKQQREKTRALNSGRGDEA, the protein stability index turned out to be 4.07.

LRHSFSKQQREKTRWLNSGRGDEA: the protein stability index came to 3.18.

On to LRHSFDKQQREKTRWLNSGRGDEA, for which the protein stability index came out at 4.37.

On to LRHSFRKQQREKTRWLNSGRGDEA, for which the protein stability index was 3.7.

LRHSFWKQQREKTRWLNSGRGDEA: the protein stability index worked out at 2.53.

As to LRHSFPKQQREKTRWLNSGRGDEA, the protein stability index came out at 4.11.

On to LRHSFHKQQREKTRWLNSGRGDEA, for which the protein stability index is 3.69.

On to LRHSFNKQQREKTRWLNSGRGDEA, for which the protein stability index stood at 3.87.

As to LRHSFAKQQREKTRWLNSGRGDEA, the protein stability index was determined as 3.78.

LRHSFQKQQNEKTRWLNSGRGDEA: the protein stability index was 3.95.

LRHSFQKQQVEKTRWLNSGRGDEA: the protein stability index came out at 3.48.

As to LRHSFQKQQKEKTRWLNSGRGDEA, the protein stability index was found to be 3.9.

As for LRHSFQKQQWEKTRWLNSGRGDEA, the protein stability index amounted to 2.66.

On to LRHSFQKQQPEKTRWLNSGRGDEA, for which the protein stability index is 3.53.

As for LRHSFQKQQDEKTRWLNSGRGDEA, the protein stability index worked out at 4.23.

As for LRHSFQKQQREKTRWLNSGRGDEG, the protein stability index worked out at 3.96.

As to LRHSFQKQQREKTRWLNSGRGDEF, the protein stability index was determined as 2.69.

On to LRHSFQKQQREKTRWLNSGRGDET, for which the protein stability index came out at 3.48.

In the case of LRHSFQKQQREKTRWLNSGRGDEI, the protein stability index was found to be 3.15.

Consider LRHSFQKQQRAKTRWLNSGRGDEA, for which the protein stability index was 3.41.

On to LRHSFQKQQRHKTRWLNSGRGDEA, for which the protein stability index turned out to be 3.27.

For the variant LRHSFQKQQRMKTRWLNSGRGDEA, the protein stability index was 2.26.

For the variant LRHSFQKIQREKTRWLNSGRGDEA, the protein stability index was determined as 3.64.

Take LRHSFQKNQREKTRWLNSGRGDEA: the protein stability index stood at 3.15.

Regarding LRHSFQKSQREKTRWLNSGRGDEA, the protein stability index turned out to be 3.63.

Consider LRHSFQKPQREKTRWLNSGRGDEA, for which the protein stability index stood at 4.13.

LRHSFQKRQREKTRWLNSGRGDEA: the protein stability index came out at 3.48.

On to LRHSFQKWQREKTRWLNSGRGDEA, for which the protein stability index is 2.08.

As for LRHSFQKLQREKTRWLNSGRGDEA, the protein stability index turned out to be 3.05.

On to LRHSFQPQQREKTRWLNSGRGDEA, for which the protein stability index worked out at 3.86.

Regarding LRHSFQQQQREKTRWLNSGRGDEA, the protein stability index came to 4.27.

Turning to LRHSFQCQQREKTRWLNSGRGDEA, the protein stability index was 1.8.

Turning to LRHSFQSQQREKTRWLNSGRGDEA, the protein stability index amounted to 4.24.

For LRHSFQAQQREKTRWLNSGRGDEA, the protein stability index is 3.95.

Take LRHSFQIQQREKTRWLNSGRGDEA: the protein stability index worked out at 3.1.

As for LRHSFQHQQREKTRWLNSGRGDEA, the protein stability index amounted to 3.53.

Consider LRHSFQKQQREKTRWLNPGRGDEA, for which the protein stability index came to 3.93.

As for LRHSFQKQQREKTRWLNKGRGDEA, the protein stability index came to 3.67.

Regarding LRHSFQKQQREKTRWLNCGRGDEA, the protein stability index stood at 3.26.

Regarding LRHSFQKQQREKTRWLNAGRGDEA, the protein stability index came to 4.02.

As to LRHSFQKQQREKTRWLNNGRGDEA, the protein stability index is 3.96.

LRHSFQKQQREKTIWLNSGRGDEA: the protein stability index is 3.02.

Consider LRHSFQKQQREKTYWLNSGRGDEA, for which the protein stability index stood at 2.76.

With LRHSFQKQQREKTNWLNSGRGDEA, the protein stability index was 3.58.

Consider LRHSFQKQQREKTEWLNSGRGDEA, for which the protein stability index worked out at 4.59.

Turning to LRHSFQKQQREKTMWLNSGRGDEA, the protein stability index turned out to be 3.42.

As for LRHSFQKQQREKTLWLNSGRGDEA, the protein stability index stood at 3.02.

For LRHSFQKQQREKTKWLNSGRGDEA, the protein stability index came to 3.78.

For the variant LRHSFQKQQREKTHWLNSGRGDEA, the protein stability index amounted to 3.98.

In the case of LRHSFQKQQREKTGWLNSGRGDEA, the protein stability index came to 4.03.

LRHSFQKQQREKTCWLNSGRGDEA: the protein stability index came to 2.68.

Take LRHSFQKQQREKTQWLNSGRGDEA: the protein stability index is 4.3.

For the variant LRHSFQKQQREKTTWLNSGRGDEA, the protein stability index amounted to 3.15.

In the case of LRHSFQKQQREKCRWLNSGRGDEA, the protein stability index was 3.6.

On to LRHSFQKQQREKIRWLNSGRGDEA, for which the protein stability index came out at 4.01.

For the variant LRHSFQKQQREKVRWLNSGRGDEA, the protein stability index was 3.26.

LRHSFQKQQREKDRWLNSGRGDEA: the protein stability index was 4.12.

With LRHSFQKQQREKWRWLNSGRGDEA, the protein stability index came out at 2.58.
